# According to patent US20230287094A1 (LUDWIG INSTITUTE FOR CANCER RESEARCH, published 2023):
# T1: human TGF-β3 (human, UniProt P10600 301-412)
# T1 sequence: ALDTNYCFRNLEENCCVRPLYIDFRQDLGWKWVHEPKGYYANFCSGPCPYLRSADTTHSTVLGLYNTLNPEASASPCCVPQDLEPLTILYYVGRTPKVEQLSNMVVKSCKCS
# T2: human TGF-β2 (human, UniProt P61812 303-414)
# T2 construct: also called TGF-ß2
# T2 sequence (looked up): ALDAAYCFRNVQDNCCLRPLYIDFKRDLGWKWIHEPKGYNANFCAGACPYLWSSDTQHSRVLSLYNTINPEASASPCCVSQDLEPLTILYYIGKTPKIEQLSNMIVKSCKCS
# B1: 1D11 mouse monoclonal anti-TGF-ß antibody (antibody, from another filing, V domains shown)
# VH: QVQLQQSGPELVRPGASVKLSCKASGYIFITYWMNWVKQRPGQGLEWIGQIFPASGSTNYNEMFEGKATLTVDTSSSTAYMQLSSLTSEDSAVYYCARGDGNYALDAMDYWGQGTSVTVSS
# VL: DIVLTQSPASLAVSLGQRATISCRASESVDSYGNSFMHWYQQKSGQPPKLLIYLASNLESGVPARFSGSGSRTDFTLTIDPVEADDAATYYCQQNNEDPLTFGAGTKLEIK
# B2: MTGF-β3-1901/16 (antibody, IgG1, V domains shown)
# VH: QVLLQQSGPELVKPGASVKISCKASGYAFSSSWIHWVKQRPGKGLEWIGRIYPGDGDTNYTGKFKGKATLTADKSSSTAYMQLSSLTSEDSAVYFCARRMITTQAAMDYWGQGTSVTVSS
# VL: SFVMTQTPKFLLVSAGDRVTITCKASQSVINAVAWYQQKPGQSPKLLIYYASNRYTGVPDRFTGNGYGTDFTFTISTVQAEDLAVYFCQQDYSSPYTFGGGTKLEIK
# B3: MTGF-β3-1679/2 (antibody, IgG2a, V domains shown)
# VH: QVLLQQSGPELVKPGASVKISCKASGYAFSSSWIHWVKQRPGKGLEWIGRIYPGDGDTNYTGKFKGKATLTADKSSSTAYMQLSSLTSEDSAVYFCARRMITTQAAMDYWGQGTSVTVSS
# VL: SFVMTQTPKFLLVSAGDRVTITCKASQSVINAVAWYQQKPGQSPKLLIYYASNRYTGVPDRFTGNGYGTDFTFTISTVQAEDLAVYFCQQDYSSPYTFGGGTKLEIK
# B4: MTGF-β3-9/8 (antibody, IgG2a, V domains shown)
# VH: QVLLQQSGPELVKPGASVKISCKASGYAFSSSWMHWVKQRPGKGLEWIGRIFPGDGDTIYNGNFKGKATLTADKSSSTAYMQLSSLTSEDSAVYFCARRMITTQAAMDYWGQGTSVTVSS
# VL: SIVMTQTPKFLLVSAGDRVTITCKASQSVINDVAWYQQKPGQSPKLLIYYASNRYTGVPDRFTGNGYGTDFTFTISTVQAEDLAVYFCQQDYSSPYTFGGGTKLEIK
# B5: MTGF-β3-1203/11 (antibody, IgG2b, V domains shown)
# VH: QVQLKQSGAELVKPGASVKISCKASGYTFTDYYINWVKQRPGQGLEWIGKIGPGTGRTYYNEKFKGKATLTADKSSSTAYMQLSSLTSEDSAVYFCAIYYGWGYAMDYWGQGTSVTVSS
# VL: DIVMTQSPSSLSVSAGEKVTMSCKSSQSLLNSGNQKNYLAWYQQKSGQPPKLLIYGASTRESGVPDRFTGSGSGTDFTLTISSVQAEDLAVYYCQNDHGFPLTFGAGTKLELK
# B6: MTGF-β3-1719/13 (antibody, IgG2a, V domains shown)
# VH: QVQLQQPGAELVKPGASVKMSCKASGYIFTSYWITWVKQRPGQGLEWIGDIFPGTGSTNYNEKFKTKASLTVDTSSSTANMQLSSLTSEDSAVYSCARKLGPNYAVDYWGQGTSVTVSS
# VL: DVVMTQTPLSLPVSLGDQASISCRSSQSLIHSHGNTYLHWYLQKPGQSPKLLIYKLSNRFSGVPDRFSGSGSGTDFTLKISRVEAEDLGVYFCSQSTHVPFTFGSGTKLEIK
# notes: also called TGF-ß3-17
# Tests used:
# human TGF-β1 = human TGF-β1 (human, UniProt P01137 279-390); assay: cell-based or functional assay
# Sequence of human TGF-β1 (P01137 279-390 limits assumed): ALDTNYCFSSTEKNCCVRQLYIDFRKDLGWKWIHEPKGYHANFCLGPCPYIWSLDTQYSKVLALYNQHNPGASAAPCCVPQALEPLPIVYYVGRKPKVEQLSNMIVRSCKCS
# human TGF-β3 = molecular target: T1, human TGF-β3; assay: cell-based or functional assay
# human TGF-β2 [1] = molecular target: T2, human TGF-β2; assay: cell-based or functional assay
# human TGF-β2 [2] = molecular target: T2, human TGF-β2; assay: assay not named
# Method: Mink lung epithelial cell line (TMLECs) were stably transfected with a truncated PAI-1 promoter fused to the firefly luciferase reporter gene. 500 pg/ml human TGF-ß3 was incubated with serial dilutions of isolated TGF-β3 antibody for 4 h at 37° C. before transfer to an equal volume of culture medium (DMEM + 10 % FCS) where 50,000 TMLEC cells had been seeded 1 - 4 h earlier. After a further 24 h incubation, luciferase activity was measured with the BRITELITE kit from Perkin-Elmer and luminescence was measured in a TOPCOUNT NXT from Perkin Elmer.
# Antibody ranging from 10 to 0 µg/ml were incubated with 500 pg/ml of the different TGF-β isoforms and TMLEC cells for 24 hours.
Binder,"IC 50 (ng/ml), TMLEC PAI-1 promoter luciferase assay (human TGF-β1)","IC 50 (ng/ml), TMLEC PAI-1 promoter luciferase assay (human TGF-β3)","IC 50 (ng/ml), TMLEC PAI-1 promoter luciferase assay (human TGF-β2 [1])",binding result (human TGF-β2 [2])
B1,72 ng/mL,6.5 ng/mL,53.7 ng/mL,
B2,,25 ng/mL,,
B3,,6 ng/mL,,
B4,,13 ng/mL,,
B5,,54 ng/mL,,
B6,263 ng/mL,79 ng/mL,,binds
